{"source": "patent US10254283", "proteins": {"B1": {"name": "recombinant MELK (kinase domain) (protein)", "chain": "MKDYDELLKYYELHETIGTGGFAKVKLACHILTGEMVAIKIMDKNTLGSDLPRIKTEIEALKNLRHQHICQLYHVLETANKIFMVLEYCPGGELFDYIISQDRLSEEETRVVFRQIVSAVAYVHSQGYAHRDLKPENLLFDEYHKLKLIDFGLCAKPKGNKDYHLQTCCGSLAYAAPELIQGKSYLGSEADVWSMGILLYVLMCGFLPFDDDNVMALYKKIMRGKYDVPKWLSPSSILLLQQMLQVDPKKRISMKNLLNHPWIMQDYNYPVEWQSKNPFIHLDDDCVTELSVHHRNNRQTMEDLISLWQYDHLTATYLLLLAKKARGKPVRLRLSSFSCG"}}, "key": {"[1]": {"molecular_target": "recombinant Histone H3.1 (New England BioLabs, M2503S)"}}, "data": [{"protein": "B1", "values": [{"measurement": "in vitro kinase assay, phosphorylation of eIF4B at Ser406 (immunoblot)", "setting": "Flag-eIF4B (wild type)", "value": "Ser406, but not Ser422, of human eIF4B was readily phosphorylated by full-length MELK or the kinase domain of MELK"}, {"measurement": "in vitro kinase assay, phosphorylation of eIF4B at Ser422 (immunoblot)", "setting": "Flag-eIF4B (wild type)", "value": "MELK does not phosphorylates eIF4B at S422 in vitro"}, {"measurement": "in vitro kinase assay, phosphorylation of eIF4B at S406 (immunoblot)", "setting": "Flag-eIF4B (S406A)", "value": "This phosphorylation was abolished when wild type (wt) eIF4B was replaced with a mutant eIF4B (S406A)"}, {"measurement": "in vitro kinase assay, phosphorylation of Histone H3 at Thr3, Ser10 and Thr11 (immunoblot)", "setting": "[1]", "value": "Thr3, Ser10, and Thr11 of human Histone H3 were readily phosphorylated by the kinase domain of MELK"}]}]}
